Data taken from PMC5775921 (Chemical biology & drug design, 2017).
pKd: −log10 of the molar value. Ends that are not written are not given here.

What was measured:
[1] = biological target: HER3 (UniProt P21860); test: SPR
[2] = biological target: recombinant extracellular domain of EGFR protein (Homo sapiens, UniProt P00533); test: SPR binding to immobilized EGFR extracellular domain; settings: peptide 0 to 200 μM as analyte

Sequence of HER3 (P21860 20-1342): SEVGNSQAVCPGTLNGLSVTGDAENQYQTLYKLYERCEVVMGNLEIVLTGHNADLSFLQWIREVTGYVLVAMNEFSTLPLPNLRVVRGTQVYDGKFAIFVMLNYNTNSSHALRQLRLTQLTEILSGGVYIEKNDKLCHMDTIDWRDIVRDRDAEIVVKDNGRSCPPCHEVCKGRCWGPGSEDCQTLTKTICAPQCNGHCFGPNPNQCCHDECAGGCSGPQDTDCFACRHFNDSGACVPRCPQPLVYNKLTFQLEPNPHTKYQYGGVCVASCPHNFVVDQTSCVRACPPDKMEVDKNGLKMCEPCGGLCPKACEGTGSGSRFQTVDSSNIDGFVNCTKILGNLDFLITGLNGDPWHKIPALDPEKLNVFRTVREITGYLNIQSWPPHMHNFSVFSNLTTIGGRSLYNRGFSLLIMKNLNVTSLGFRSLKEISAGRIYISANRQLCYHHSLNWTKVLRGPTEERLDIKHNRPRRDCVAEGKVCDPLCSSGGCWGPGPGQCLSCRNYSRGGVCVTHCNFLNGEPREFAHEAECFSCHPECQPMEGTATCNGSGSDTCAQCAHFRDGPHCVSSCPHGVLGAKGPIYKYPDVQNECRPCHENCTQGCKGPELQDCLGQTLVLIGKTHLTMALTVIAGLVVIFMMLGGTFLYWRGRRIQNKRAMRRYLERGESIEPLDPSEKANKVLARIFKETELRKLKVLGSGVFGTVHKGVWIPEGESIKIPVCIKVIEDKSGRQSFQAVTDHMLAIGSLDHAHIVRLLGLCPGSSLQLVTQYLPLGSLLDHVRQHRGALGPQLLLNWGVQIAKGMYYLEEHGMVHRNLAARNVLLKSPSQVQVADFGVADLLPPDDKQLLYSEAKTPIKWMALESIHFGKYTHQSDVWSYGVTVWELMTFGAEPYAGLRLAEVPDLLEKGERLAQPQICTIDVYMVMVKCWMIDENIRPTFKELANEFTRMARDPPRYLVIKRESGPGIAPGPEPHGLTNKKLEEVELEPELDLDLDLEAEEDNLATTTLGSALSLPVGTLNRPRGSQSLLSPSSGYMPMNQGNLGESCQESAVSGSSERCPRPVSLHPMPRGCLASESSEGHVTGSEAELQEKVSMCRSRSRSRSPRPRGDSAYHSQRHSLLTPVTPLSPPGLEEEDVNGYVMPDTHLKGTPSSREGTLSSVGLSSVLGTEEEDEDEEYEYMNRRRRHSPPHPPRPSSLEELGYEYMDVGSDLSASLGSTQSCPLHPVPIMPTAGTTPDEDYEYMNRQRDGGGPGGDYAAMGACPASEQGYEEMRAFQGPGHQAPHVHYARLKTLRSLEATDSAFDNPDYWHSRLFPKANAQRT

| Substance | pKd [1] | binding to EGFR as seen by SPR [2] |
| --- | --- | --- |
| Cyclo.L1.1: Cyclo(K(N3)larllt) (peptide) | 4.30 | – |
| GLARLLT-CONH2 (GLARLLT-NH2) [Peptide L1.6] | – | exhibited binding to the EGFR protein in a concentration-dependent manner |
| tllarl-CONH2 [Peptide L1.3] | – | exhibited binding to the EGFR protein in a concentration-dependent manner |
